Measured values published in US20180305421A1 (SHIRE HUMAN GENETIC THERAPIES, published 2018).

Legend:
myostatin [1] = biological target: T1, myostatin (UniProt O14793 267-375); assay: Biacore SPR (Table 3)
T1 sequence (looked up): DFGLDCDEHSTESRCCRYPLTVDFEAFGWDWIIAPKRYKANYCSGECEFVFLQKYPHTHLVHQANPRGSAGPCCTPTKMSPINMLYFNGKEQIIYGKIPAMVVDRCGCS
From the text: (§1) Specifically, commercially available follistatins (FS315, manufactured by R&D Systems and follistatin-Fc human chimera FS315-hFc, manufactured by Sino Biological), and FS315-GAG3-mFc fusion proteins were used to assess binding affinity and kinetics to activin, myostatin, and BMPs using Biacore assays. Briefly, FS315 was immobilized onto a CM5 chip, and follistatin-Fc fusion proteins were captured using human or mouse antibody capture kits (GE Healthcare). Post amine-coupling, a concentration series of activin, myostatin, or BMPs (e.g., BMP-2, -4, -6, -7, -9, -10, and GDF-1) was added as soluble analyte at 25° C. sActRTIB-hFc was used as a control. Binding affinities (Kd) and kinetics were determined using standard methods.

myostatin [2] = biological target: T1, myostatin; assay: cell-based or functional assay
activin [3] = biological target: T2, activin (UniProt P08476 311-426); assay: cell-based or functional assay
T2 sequence (looked up): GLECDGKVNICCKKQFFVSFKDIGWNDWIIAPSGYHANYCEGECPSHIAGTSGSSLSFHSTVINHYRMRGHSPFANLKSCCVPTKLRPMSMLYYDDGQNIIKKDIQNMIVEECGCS

myostatin [4] = biological target: T1, myostatin; assay: cell-based or functional assay; remark: listed apart in the source
BMP-9 = biological target: T3, BMP-9 (UniProt Q9UK05 320-429); assay: Biacore SPR, 25 C; Fc fusion captured with antibody capture kit, ligand as soluble analyte
T3 sequence (looked up): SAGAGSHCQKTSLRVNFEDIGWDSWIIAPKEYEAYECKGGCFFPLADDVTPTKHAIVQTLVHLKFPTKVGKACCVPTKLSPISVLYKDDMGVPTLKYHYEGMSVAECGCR
From the text: as §1

BMP-10 = biological target: T4, BMP-10 (UniProt O95393 317-424); assay: as above
T4 sequence (looked up): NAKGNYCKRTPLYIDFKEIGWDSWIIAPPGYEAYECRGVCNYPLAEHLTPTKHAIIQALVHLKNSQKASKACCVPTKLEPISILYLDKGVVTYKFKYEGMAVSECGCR
From the text: as §1

BMP-2 = BMP-2 (UniProt P12643 283-396); assay: as above
From the text: as §1

GDF-11 = biological target: T5, GDF-11 (UniProt O95390 299-407); assay: Biacore SPR, 25 C; Fc fusion captured with mouse antibody capture kit, ligand as soluble analyte
T5 sequence (looked up): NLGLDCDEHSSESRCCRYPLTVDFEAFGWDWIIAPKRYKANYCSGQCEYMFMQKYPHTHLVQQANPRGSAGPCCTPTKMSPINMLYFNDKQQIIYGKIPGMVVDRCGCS
From the text: as §1

myostatin [5] = biological target: T1, myostatin; assay: as above
From the text: as §1

activin [6] = biological target: T2, activin; assay: as above
From the text: as §1

BMP-4 = biological target: T6, BMP-4 (UniProt P12644 293-408); assay: as above
T6 sequence (looked up): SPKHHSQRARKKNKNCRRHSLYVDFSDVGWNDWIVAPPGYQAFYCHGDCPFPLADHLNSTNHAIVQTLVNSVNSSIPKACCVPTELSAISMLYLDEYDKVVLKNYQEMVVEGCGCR
From the text: as §1

Chain of BMP-2 (P12643 283-396 limits assumed): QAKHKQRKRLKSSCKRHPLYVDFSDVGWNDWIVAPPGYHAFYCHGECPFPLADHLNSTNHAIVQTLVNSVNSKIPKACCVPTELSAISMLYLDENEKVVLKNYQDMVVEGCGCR

B1: FS315-GAG3-mFc (Fc fusion)
chain: GNCWLRQAKNGRCQVLYKTELSKEECCSTGRLSTSWTEEDVNDNTLFKWMIFNGGAPNCIPCKETCENVDCGPGKKCRMNKKNKPRCVCAPDCSNITWKGPVCGLDGKTYRNECALLKARCKEQPELEVQYQGRCKKTCRDVFCPGSSTCVVDQTNNAYCVTCNRICPEPASSEQYLCGNDGVTYSSACHLRKATCLLGRSIGLAYEGKCIKAKSCEDIQCTGGKKCLWDFKVGRGRCSLCDELCPDSKSDEPVCASDNATYASECAMKEAACSSGVLLEVKHSGSCNSISEDTEEEEEDEDQDYSFPISSILEWGAPGGGGGAAAAAGGGGGGAPGGGGGAAAAAGGGGGGAPGGGGGAAAAAGGGGGGAPGCKPCICTVPEVSSVFIFPPKPKDVLTITLTPKVTCVVVDISKDDPEVQFSWFVDDVEVHTAQTQPREEQFNSTFRSVSELPIMHQDWLNGKEFKCRVNSAAFPAPIEKTISKTKGRPKAPQVYTIPPPKEQMAKDKVSLTCMITDFFPEDITVEWQWNGQPAENYKNTQPIMDTDGSYFVYSKLNVQKSNWEAGNTFTCSVLHEGLHNHHTEKSLSHSPGK
notes: also called FS315-mFc; FS315-Fc
B1 was tested, and the “fold increase of binding affinity against follistatin (FS315)” value (myostatin [1]) was at least 10 fold, the “IC50, CAGA-luciferase reporter assay for Smad2/3 signaling (1.2 nM myostatin)” value (myostatin [2]) was 460 pM and the “IC50, CAGA-luciferase reporter assay for Smad2/3 signaling (1.2 nM activin)” value (activin [3]) was 360 pM. The “IC50 (read off the curve); CAGA-luciferase reporter in HEK293 cells, myostatin (1.2 nM)-induced Smad2/3 signalling” value (myostatin [4]) was about 300 pM, the binding result (BMP-9) was “no binding” and the binding result (BMP-10) was “no binding”. The binding result (BMP-2) was “no binding”, the Kd (GDF-11) was 0.018 pM and the Kd (myostatin [5]) was 0.073 pM. The Kd (activin [6]) was 0.038 pM and the Kd (BMP-4) was 81000 pM.
